Measurements published in publication PMC12541621.

Biological target: Recombinant Human HER2 ECD (human) (UniProt P04626)
Assay: SPR

Kd: 0.107 nM
Substance: ABY-025 (designed binder)
